# In the RNAGym collection of RNA variant scans (doi:10.1021/acssynbio.7b00057):
# B1: Pistol ribozyme (parent)
# chain: GGGUCGUUGUUCCAUAAUCGCGUGGAUAUGGCACGCAAGUUUCUACCGGGCACCGUAAAUGUCCGACUGGAGCCGUUCGGGCGGCUAUAAACAGACCUCAGGCCCGAAGCGUGGCGGCACCUGCCGCCGGUGGUAAAAAAGAUCGGAAGAGCACACGUCU
# Variants of: B1
# Assay: aptazyme ON/OFF ratio, guanine; higher = stronger switching; co-transcriptional cleavage with and without guanine
row,Variant,aptazyme ON/OFF ratio
1,GGGUCGAACCGGUAUAAUCGCGUGGAUAUGGCACGCAAGUUUCUACCGGGCACCGUAAAUGUCCGACUGGAGCCGUUCGGGCGGCUAUAAACAGACCUCAGGCCCGAAGCGUGGCGGCACCUGCCGCCGGUGGUAAAAAAGAUCGGAAGAGCACACGUCU,1.08
2,GGGUCGGGGAAAAAUAAUCGCGUGGAUAUGGCACGCAAGUUUCUACCGGGCACCGUAAAUGUCCGACUGGAGCCGUUCGGGCGGCUAUAAACAGACCUCAGGCCCGAAGCGUGGCGGCACCUGCCGCCGGUGGUAAAAAAGAUCGGAAGAGCACACGUCU,1.31
3,GGGUCGGGGAUCUAUAAUCGCGUGGAUAUGGCACGCAAGUUUCUACCGGGCACCGUAAAUGUCCGACUGGAGCCGUUCGGGCGGCUAUAAACAGACCUCAGGCCCGAAGCGUGGCGGCACCUGCCGCCGGUGGUAAAAAAGAUCGGAAGAGCACACGUCU,1.36
4,GGGUCGCCGAGGAAUAAUCGCGUGGAUAUGGCACGCAAGUUUCUACCGGGCACCGUAAAUGUCCGACUGGAGCCGUUCGGGCGGCUAUAAACAGACCUCAGGCCCGAAGCGUGGCGGCACCUGCCGCCGGUGGUAAAAAAGAUCGGAAGAGCACACGUCU,1.25
5,GGGUCGCCCGAAUAUAAUCGCGUGGAUAUGGCACGCAAGUUUCUACCGGGCACCGUAAAUGUCCGACUGGAGCCGUUCGGGCGGCUAUAAACAGACCUCAGGCCCGAAGCGUGGCGGCACCUGCCGCCGGUGGUAAAAAAGAUCGGAAGAGCACACGUCU,1.11
6,GGGUCGCCUUUGUAUAAUCGCGUGGAUAUGGCACGCAAGUUUCUACCGGGCACCGUAAAUGUCCGACUGGAGCCGUUCGGGCGGCUAUAAACAGACCUCAGGCCCGAAGCGUGGCGGCACCUGCCGCCGGUGGUAAAAAAGAUCGGAAGAGCACACGUCU,1.17
7,GGGUCGGGUCAUGAUAAUCGCGUGGAUAUGGCACGCAAGUUUCUACCGGGCACCGUAAAUGUCCGACUGGAGCCGUUCGGGCGGCUAUAAACAGACCUCAGGCCCGAAGCGUGGCGGCACCUGCCGCCGGUGGUAAAAAAGAUCGGAAGAGCACACGUCU,1.37
8,GGGUCGAGGCUGUAUAAUCGCGUGGAUAUGGCACGCAAGUUUCUACCGGGCACCGUAAAUGUCCGACUGGAGCCGUUCGGGCGGCUAUAAACAGACCUCAGGCCCGAAGCGUGGCGGCACCUGCCGCCGGUGGUAAAAAAGAUCGGAAGAGCACACGUCU,1.28
9,GGGUCGGCGCGUGAUAAUCGCGUGGAUAUGGCACGCAAGUUUCUACCGGGCACCGUAAAUGUCCGACUGGAGCCGUUCGGGCGGCUAUAAACAGACCUCAGGCCCGAAGCGUGGCGGCACCUGCCGCCGGUGGUAAAAAAGAUCGGAAGAGCACACGUCU,1.16
10,GGGUCGACCUCUCAUAAUCGCGUGGAUAUGGCACGCAAGUUUCUACCGGGCACCGUAAAUGUCCGACUGGAGCCGUUCGGGCGGCUAUAAACAGACCUCAGGCCCGAAGCGUGGCGGCACCUGCCGCCGGUGGUAAAAAAGAUCGGAAGAGCACACGUCU,1.03
11,GGGUCGGAAUUUUAUAAUCGCGUGGAUAUGGCACGCAAGUUUCUACCGGGCACCGUAAAUGUCCGACUGGAGCCGUUCGGGCGGCUAUAAACAGACCUCAGGCCCGAAGCGUGGCGGCACCUGCCGCCGGUGGUAAAAAAGAUCGGAAGAGCACACGUCU,1.08
12,GGGUCGCCUGUGCAUAAUCGCGUGGAUAUGGCACGCAAGUUUCUACCGGGCACCGUAAAUGUCCGACUGGAGCCGUUCGGGCGGCUAUAAACAGACCUCAGGCCCGAAGCGUGGCGGCACCUGCCGCCGGUGGUAAAAAAGAUCGGAAGAGCACACGUCU,1.15
13,GGGUCGGGAGCCGAUAAUCGCGUGGAUAUGGCACGCAAGUUUCUACCGGGCACCGUAAAUGUCCGACUGGAGCCGUUCGGGCGGCUAUAAACAGACCUCAGGCCCGAAGCGUGGCGGCACCUGCCGCCGGUGGUAAAAAAGAUCGGAAGAGCACACGUCU,1.08
14,GGGUCGGCCGAUUAUAAUCGCGUGGAUAUGGCACGCAAGUUUCUACCGGGCACCGUAAAUGUCCGACUGGAGCCGUUCGGGCGGCUAUAAACAGACCUCAGGCCCGAAGCGUGGCGGCACCUGCCGCCGGUGGUAAAAAAGAUCGGAAGAGCACACGUCU,1.03
15,GGGUCGAUGGCAUAUAAUCGCGUGGAUAUGGCACGCAAGUUUCUACCGGGCACCGUAAAUGUCCGACUGGAGCCGUUCGGGCGGCUAUAAACAGACCUCAGGCCCGAAGCGUGGCGGCACCUGCCGCCGGUGGUAAAAAAGAUCGGAAGAGCACACGUCU,1.2
16,GGGUCGCCCUAAGAUAAUCGCGUGGAUAUGGCACGCAAGUUUCUACCGGGCACCGUAAAUGUCCGACUGGAGCCGUUCGGGCGGCUAUAAACAGACCUCAGGCCCGAAGCGUGGCGGCACCUGCCGCCGGUGGUAAAAAAGAUCGGAAGAGCACACGUCU,1.14
17,GGGUCGGGGUUGCAUAAUCGCGUGGAUAUGGCACGCAAGUUUCUACCGGGCACCGUAAAUGUCCGACUGGAGCCGUUCGGGCGGCUAUAAACAGACCUCAGGCCCGAAGCGUGGCGGCACCUGCCGCCGGUGGUAAAAAAGAUCGGAAGAGCACACGUCU,1.38
18,GGGUCGCUUAGGUAUAAUCGCGUGGAUAUGGCACGCAAGUUUCUACCGGGCACCGUAAAUGUCCGACUGGAGCCGUUCGGGCGGCUAUAAACAGACCUCAGGCCCGAAGCGUGGCGGCACCUGCCGCCGGUGGUAAAAAAGAUCGGAAGAGCACACGUCU,1.16

row,Variant,aptazyme ON/OFF ratio
1,GGGUCGCCCCGCUAUAAUCGCGUGGAUAUGGCACGCAAGUUUCUACCGGGCACCGUAAAUGUCCGACUGGAGCCGUUCGGGCGGCUAUAAACAGACCUCAGGCCCGAAGCGUGGCGGCACCUGCCGCCGGUGGUAAAAAAGAUCGGAAGAGCACACGUCU,1.21
2,GGGUCGGCUUAGUAUAAUCGCGUGGAUAUGGCACGCAAGUUUCUACCGGGCACCGUAAAUGUCCGACUGGAGCCGUUCGGGCGGCUAUAAACAGACCUCAGGCCCGAAGCGUGGCGGCACCUGCCGCCGGUGGUAAAAAAGAUCGGAAGAGCACACGUCU,1.22
3,GGGUCGGACAUUCAUAAUCGCGUGGAUAUGGCACGCAAGUUUCUACCGGGCACCGUAAAUGUCCGACUGGAGCCGUUCGGGCGGCUAUAAACAGACCUCAGGCCCGAAGCGUGGCGGCACCUGCCGCCGGUGGUAAAAAAGAUCGGAAGAGCACACGUCU,1.03
4,GGGUCGUGGGUACAUAAUCGCGUGGAUAUGGCACGCAAGUUUCUACCGGGCACCGUAAAUGUCCGACUGGAGCCGUUCGGGCGGCUAUAAACAGACCUCAGGCCCGAAGCGUGGCGGCACCUGCCGCCGGUGGUAAAAAAGAUCGGAAGAGCACACGUCU,1.39
5,GGGUCGUUUUGUUAUAAUCGCGUGGAUAUGGCACGCAAGUUUCUACCGGGCACCGUAAAUGUCCGACUGGAGCCGUUCGGGCGGCUAUAAACAGACCUCAGGCCCGAAGCGUGGCGGCACCUGCCGCCGGUGGUAAAAAAGAUCGGAAGAGCACACGUCU,1.29
6,GGGUCGGUAGCAUAUAAUCGCGUGGAUAUGGCACGCAAGUUUCUACCGGGCACCGUAAAUGUCCGACUGGAGCCGUUCGGGCGGCUAUAAACAGACCUCAGGCCCGAAGCGUGGCGGCACCUGCCGCCGGUGGUAAAAAAGAUCGGAAGAGCACACGUCU,1.1
7,GGGUCGGAAGUAUAUAAUCGCGUGGAUAUGGCACGCAAGUUUCUACCGGGCACCGUAAAUGUCCGACUGGAGCCGUUCGGGCGGCUAUAAACAGACCUCAGGCCCGAAGCGUGGCGGCACCUGCCGCCGGUGGUAAAAAAGAUCGGAAGAGCACACGUCU,1.37
8,GGGUCGAAGGCGUAUAAUCGCGUGGAUAUGGCACGCAAGUUUCUACCGGGCACCGUAAAUGUCCGACUGGAGCCGUUCGGGCGGCUAUAAACAGACCUCAGGCCCGAAGCGUGGCGGCACCUGCCGCCGGUGGUAAAAAAGAUCGGAAGAGCACACGUCU,1.39
9,GGGUCGAUCCUCUAUAAUCGCGUGGAUAUGGCACGCAAGUUUCUACCGGGCACCGUAAAUGUCCGACUGGAGCCGUUCGGGCGGCUAUAAACAGACCUCAGGCCCGAAGCGUGGCGGCACCUGCCGCCGGUGGUAAAAAAGAUCGGAAGAGCACACGUCU,1.22
10,GGGUCGAUGAUCGAUAAUCGCGUGGAUAUGGCACGCAAGUUUCUACCGGGCACCGUAAAUGUCCGACUGGAGCCGUUCGGGCGGCUAUAAACAGACCUCAGGCCCGAAGCGUGGCGGCACCUGCCGCCGGUGGUAAAAAAGAUCGGAAGAGCACACGUCU,1.05
11,GGGUCGGCGCAAAAUAAUCGCGUGGAUAUGGCACGCAAGUUUCUACCGGGCACCGUAAAUGUCCGACUGGAGCCGUUCGGGCGGCUAUAAACAGACCUCAGGCCCGAAGCGUGGCGGCACCUGCCGCCGGUGGUAAAAAAGAUCGGAAGAGCACACGUCU,1.26
12,GGGUCGUGGGUUAAUAAUCGCGUGGAUAUGGCACGCAAGUUUCUACCGGGCACCGUAAAUGUCCGACUGGAGCCGUUCGGGCGGCUAUAAACAGACCUCAGGCCCGAAGCGUGGCGGCACCUGCCGCCGGUGGUAAAAAAGAUCGGAAGAGCACACGUCU,1.3
13,GGGUCGGAUCCGGAUAAUCGCGUGGAUAUGGCACGCAAGUUUCUACCGGGCACCGUAAAUGUCCGACUGGAGCCGUUCGGGCGGCUAUAAACAGACCUCAGGCCCGAAGCGUGGCGGCACCUGCCGCCGGUGGUAAAAAAGAUCGGAAGAGCACACGUCU,1.06
14,GGGUCGGCUGCCGAUAAUCGCGUGGAUAUGGCACGCAAGUUUCUACCGGGCACCGUAAAUGUCCGACUGGAGCCGUUCGGGCGGCUAUAAACAGACCUCAGGCCCGAAGCGUGGCGGCACCUGCCGCCGGUGGUAAAAAAGAUCGGAAGAGCACACGUCU,1.09
15,GGGUCGCAUUGGUAUAAUCGCGUGGAUAUGGCACGCAAGUUUCUACCGGGCACCGUAAAUGUCCGACUGGAGCCGUUCGGGCGGCUAUAAACAGACCUCAGGCCCGAAGCGUGGCGGCACCUGCCGCCGGUGGUAAAAAAGAUCGGAAGAGCACACGUCU,1.14
16,GGGUCGGCCGUCCAUAAUCGCGUGGAUAUGGCACGCAAGUUUCUACCGGGCACCGUAAAUGUCCGACUGGAGCCGUUCGGGCGGCUAUAAACAGACCUCAGGCCCGAAGCGUGGCGGCACCUGCCGCCGGUGGUAAAAAAGAUCGGAAGAGCACACGUCU,1.17
17,GGGUCGGUGAGGGAUAAUCGCGUGGAUAUGGCACGCAAGUUUCUACCGGGCACCGUAAAUGUCCGACUGGAGCCGUUCGGGCGGCUAUAAACAGACCUCAGGCCCGAAGCGUGGCGGCACCUGCCGCCGGUGGUAAAAAAGAUCGGAAGAGCACACGUCU,1.26
18,GGGUCGCAUUACGAUAAUCGCGUGGAUAUGGCACGCAAGUUUCUACCGGGCACCGUAAAUGUCCGACUGGAGCCGUUCGGGCGGCUAUAAACAGACCUCAGGCCCGAAGCGUGGCGGCACCUGCCGCCGGUGGUAAAAAAGAUCGGAAGAGCACACGUCU,1.05
